Test: yeast display, Sf9 membrane polyspecificity reagent, FACS + sequencing; frameworks hold sequencing errors
Summary of the method: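 Galactose-induced (36–48 hours) yeast carrying a synthetic nanobody display library were exposed to 10% biotinylated, detergent-solubilized Sf9 membrane reagent at 4 °C for 1 hour. FACS followed streptavidin microbead enrichment, using low and high (top ~1%) gates for expression (anti-HA) and reagent binding (streptavidin). Colony PCR, MiSeq 2 × 250 sequencing and CDR-length filtering followed. Labels for polyreactivity reflect the gate of origin.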

| Sequence | polyreactivity (PSR sort gate) |
| --- | --- |
| QVQLVESGRGLVQAGGSLRLSCAASGSIFGYYAMGWYRQAPGKERELVAAISRSGGSTYYADSVKGRFTISRDNAKNTVYLQMNSLKPEDTAVYYCAADDYPYGNYYWGQGTQVTVSS | high polyreactivity |
| QVQLVESGGGLVQAGGSLRLTCAASGSIFPFYAKGWYRQATGKERELVAAISDSGGDTYYADSVKGRFTISRDNAKNTVYLQMNSLKPEDTAVYYCAADCFYNSFNYWGQGTQVTVSS | low polyreactivity |
| QVQLVESGGGLVQAGGSLRLSCAASGFTFQENAMGWYRQAHGKERELVAAISTSGDSTYYADSVKGRFTISRDNAKNTVYLQMNSLKPEDTAVYYCATAYEVLVACVLYDYWGKGTQVTVSS | low polyreactivity |
| QVQLVESGGGLVQAGGSLRLSCSASGRNFKYYAMGWYRKAPGKERELVAAITSTGGSTYYADSVKGRFTISRDNGKNTVYLQLNSLKPEDTAVYYCNRDTQYRDRSDNHWGQGTQVTVSS | high polyreactivity |
| QVQLVESGGGLVQAGGSLRLSCAASGSTLYRNAMGWYRQAPGKEREFVAAISWSGGSTYYADSVKGRFTISRDNAKNTVYLQMNSLKPEDTAVYYCNARGPTVYETHNYWGQGTQVTVSS | low polyreactivity |
| QVQLVESGGGLVQAGGSLRLSCAASGYIFRIYAMGWYRQAPGKERELVATITNGGSTHYADSVKGRFTISRDNAKNTVYLQMNSLKPEDTAVYYCAADLLYSEYDYWGQGTQVTVSS | high polyreactivity |
| QVQLVESGGGLVQAGGSLRISCAASGSTIGVNAMGLYRQAPGKEMELVAAISVSGGRTYYADSVKGRFTISRDYAKNTVYLQMNSLKPEDTAVYYCAATTYIWPYDYWGQGTQVNVSS | low polyreactivity |
| QVKLVESGGGLVQAGGSIRLSCAASGSIFWYYAMGWYRQAPGKERELVATITSGGSTSYADSVKGRFTISRDNAKNTVYLQMKSLKPEDTAVYYCAAARLFTTYDWGQGTQVTVSS | low polyreactivity |
| QVQLVESGGGLVQAGGSLRLSCAASGILYYYAMGWYRQAPGKERELVAAITSGGSTNYADSVKGRFTISRDNAKNTVYLQMNSLKPEDTAVYYCNARRWWVIRDYWGQGTQVTVSS | high polyreactivity |
| QGQLVESGGGFVQEGGSLRLSCAASRSIFRLYAMGWYRQAPGKEREFVARLRWRGGSTNYADSVKGRFTISRDNAKKTVYLQMNSLKPEDTAVYYCNARGRSGGGRYDYWGQGTQVTVSS | high polyreactivity |
| QVQLVESGGGLVQAGGSLRLSCAASGFTFLNYAMGWYRQAPGKERELVAAISFSTGRTYYADSVKGRFTISRDNAKNTVYLQMNSLKPEDTAVYYCYVLHRSDSGYYYRYDYWGQVTQVTVSS | high polyreactivity |
| QLQLVESGGGLVQAGGSLRLSCAASGSTFGPYTMGWYRQAPGKERELVATISSGGSTYYADSVKGRFTISRDNAKNTVYLQMNSLKPEDTAVYYCAARYWSIYDYWGQGTQVTVSS | low polyreactivity |
| QVQLVESGGGFVQAGRSLRISSAPSGLMFLGKAMGWYRPAPGKERDLVGGIRALGGTTSYAYSVKGRFTISRDNAKNTVFLQLICKKPEDTELYVCAASYVSSRYFVLRHGDYYWGKGTQVTVSS | low polyreactivity |
| QVQLVESGGGLVQAGGSLRLSCAASGRTFNGDAMGWYRQAPGKERELVAAISSSGGSTYYADSVKGRFTISRDNAKNTVYLQMNSLKPEDTAVYYCAARRANGFNYWGHGTQVTVSS | high polyreactivity |
| QVQLVESGGGLVQAGGSLRLSCAASGRILVHNAMGWYRQAPGKERELVAVITARGASTYYADSVKGRFTISRDNAKNTVYLQMNSLKPEDTAVYYCATDKRPKYYNQYDYWGQGTQVTVSS | low polyreactivity |
| QVQLVESRGGLVQAGGSLRLSSAASGRTFRSYVMGWYTPAPGKERQLVAAITRSGGSTYYADSVKGRFTISRDNAKNTVYLQMNSLKPEDTAVYYCATDRWYYYPDYYPYGEYDYWGQGTQVTVSS | low polyreactivity |
| QVQLVESGGGLVQAGGSLRLSCAASGITFSHNAMGWYRQAPGKERELVAAITRSGRSTYYADSVKGRFTISRDNAKNTVYLQMNSLKPEDTAVYYCSTDNHQRRAGSGYWGQGTQVTVSS | low polyreactivity |
| QVQLEESGGGLVQAGGSLRISCAASGITFDDYDMGWYRQAPGKERELVAAITWSGGSTYYADSVKGRFTSSRDNAKNTVYLQMNSLKPEVTAVSYCNAGSTWAYSYPVGKSDLDYWGQGTQVTVSS | low polyreactivity |
| QVQLVESGGGLVQAGGSLRLSCAASGITFGLYVMGWYRQAPRKERELVAANSSGGSTNYADSVKGRFTISRDNAKNPVYLQMNSLKPEDTAVYYCNADRLRPEYDYWGQGTQVTVSS | low polyreactivity |
| QVQLVESGGGLVQAGGSLRLSCAASGSTFRRNAMGWYRQAPGKERELVAAITSTDSTYYADSVKGRFTISRDNAKNTVYLQMNSLKPEDTAVYYCAKGYCWGGQMGYWGQGTQVTVSS | low polyreactivity |
| QVQLVESGGGLVQAGGSLRLSCAASGSIFVANAMGWYRQAPGKERELVAVISSGGGSTSYADSVKGRFTISRDNAKNTVYLQMSSLKPEDTAVYDCTRRRYDAGSTMGYWGQGTQVTVSS | low polyreactivity |
| QVQLVESGGVLVQAGGSLRLSCAASGSIFCVNAMGWSRQAPGKERELVAAISWRGASTYYADSVKGRFTISRDNAMNTVYLQMNSLKPEDTAVYYCAAKCTGGDPYYAFDYWGQGTHVTVSS | low polyreactivity |

| Sequence | polyreactivity (PSR sort gate) |
| --- | --- |
| QVQLVESGGGLVQAGGSLRLSCAPSGRIFTRYAMGWYRQAPGKERELVAASSSSGGSTYYADSVKGRFTISRDNAKNTVYLQMTSLKPEDTAVYYCNRGGWYAYYWGQGTQVTVSS | high polyreactivity |
| QVQLVESGGGLFQAGGSLRLSCAASGSIFAGYAMGWSRQAPGNERELVATITSSSRTNYADSVKGRFTISRDNAKNTVYLQMNSLKPEDTAVYYCAATSFSVRFTRYYYWGQGTQVTVSS | high polyreactivity |
| QVQLVESGAGLVQAGVSLRLSCAASGRIFYYYTMGWYRHAPGKERELVASITIGDSTYYADSVKGRFTISRDNAKNTVYLQMNSLKPEDTAVYYCAAVKTVDVGYDYWGQGTQVTVSS | low polyreactivity |
| QVQLVESGGGLVQAGGSLRLSCAASGRTVVNAMGWYRQAPGKERELVAAISSNGGRTYYADSVKGRFTISRDNAKNTVYLQINSLKPEDTAVYYCAAGYIWFRKIQFDYWGQGTQVTVSS | high polyreactivity |
| QVQLVESGGGLVQAGGSLRLSCAASGFTFDQNAMGWYRQAPGKERELVAAISVGGGSTYYADSVKGRFTISRDNAKNTVYLQMNSLKPEDTAVYYCAASYVYPASFHYYYWGQGTQVTVSS | high polyreactivity |
| QVQLVESGGGLVQAGGSLRLSCAASGSIFVFYAMGWYRQAPGKERELVASITSSGGSTYYADSVKGRFTISRDNAKNTVYLQMNSLKPEDTAVYYCAARKYRNPYYYRYYYWGQGTQVTVSS | high polyreactivity |
| QVQLVESGGGLVQAGGSLRLSCAASGITFYVYALGWYRQAPGKARALVAANNYDSGSTYYADSEKGRFTISRDNAKNTVYIQKNSLKPEDTAGYYCATDGVNPFYAYDYWGQGTQVTVSS | low polyreactivity |
| QVQLVESGGGLVQAGGSLRLICAASGSTFRYYAMVLYRQAPGKERELVAAISGTGSTYYADSVKGRFTISRDNAKNTVYLQMNSLKPEDTAVYYCAAYPRASQRYNYWGQGTQVTVSS | high polyreactivity |
| QVQLVESGGGLVQAGGSLRLSCAASGRIFFLYAMGWYRQAPGKERELVASITRRGGSTYYADSVKGRVTISRDNAKNTVYLQMTSLKPEDTAVYYCAAELYRSNVYHYDYWGQGTQVTVSS | high polyreactivity |
| QVQLVESGGGLVQAGGSLRLSCAASGSISDTYGMGWYRQAPGKERELVASITWSSGSTDYADSVKGRFTISRDNAKNTVYLQMNSLKPAETAVYYCATYEPFYSFIFRGIYDYWGQGTQVTVSS | low polyreactivity |
| QVQLVESGGGLVQAGGSLRLSCAASGIISIFIVMGGYRQAPGKERELVASITGRGGSTFYADSVKGRFTISRDNAKNTVYLQMNSLKPEDTAVYYCATDTGYTYPVTGLYDYWGQGTQVTVSS | low polyreactivity |
| QVQLVESGGGLVQAGGSLRLSCAASGRIFSYYAMGWYRQAPGKERELVATINSGGSTNYADSVKGRFTISRDNAKNTVYLQMNSLKPVATAVYYCAASPVWWYDYWGQGTQVTVSS | low polyreactivity |
| QVQLVESGGGLVQAGGSLRLSCAASGYTFGWYAMGWYRQAPGTERELVAGISSAGSTNYADSVKGRFTISRDNAKNTVYLQMNSLKPEDTAVYYCARDKWGLRYAPTVDYWGQGTQLTVSS | high polyreactivity |
| QVQLVESGGGLLQAGGRLRLSCAASGSIFPYYAMGWYRQAPGKERALVAAISDSGDSTYYADSVKGRFTMSRDNAKNTVYLQMNSLKPEDTAVYYCAADQTSSYYDPWGDYWGQGTQVTVSS | low polyreactivity |
| QVQIVESGGGLVQAGGSLRLSCAASGFIFWDYAMGWYRQAPGKERELVAAISDSGGDTYYADSVKGRFTISRDNAKNTVYLQMNSLKPEDTAVYYCAADVELWVFRGQQYDYWGQGTQVTVSS | low polyreactivity |
| QVQLVESGGGLVQAGGSLRLSCAASGSTFQGYAMGWYRQAPGKERELVAVINRSGTNTYYADSVKGRFTISRDNAKNTVYLQMNSLKPEDTAVYYCNAQPSSKPPTYYYWGQGTQVTVSS | high polyreactivity |
| QVQLVESGGGLVQAGGSLRLSCAASGSTFYKYAMGWYRQAPGKERELVAVINYRGGSTYYADSVKGRFTISRDNAKNTVYLQMNSLKPEDTAVYYCAARQYWQNRRQYYYWGQGTQVTVSS | high polyreactivity |
| QVHLVESGGGLVQAGGSLGISCAASGRILYGYAMGWNRQAPGKERELVAAITATYYADSVKGRFTISRDNAKNSVYLQMNSLNPEDTGVFYCNAYLCPIQPLSPPDPTFEGGYWGQGTQVTVSS | low polyreactivity |
| QVQLVESGGGLVQAGGSLRLSCAASGIIFSSNVMGWYRQAPGKERELVAAISRSGDRSYYADSVKGRFTISRDNAKITVYLQMNSLKPEDTAVYYCAGRVRVNVVSNGYWGQGTQVTVSS | high polyreactivity |
| QVQLVESGGGLVQAGGSLRISCAASGSIFRGYGMGWDRQAPGKERELVAAINYSGGSTYYADSVKGRYTISRDNAKNTVYLQMNSLKPEDTAVYYCNKVYYRQRGEYYYWGQGTQVTVSS | high polyreactivity |
| QVQLVESGAPLVQAGGSLRLSCAASGSTFERYVMGWYRQRLGNKGSWLPVLNHNGGSTYYADSVKGRFTISRDNAKNTVYLQMNSLKPEDTAVYYCAASFRTVLDYGYWGQGTQVTVSS | low polyreactivity |

— the nanobody polyreactivity screen of Harvey et al. (2022)
